Legend:
[1] = target: mouse CCR5 (mCCR5) cloned from B6 mice, transiently expressed on HeLa-MAGI cells (mouse) (UniProt P51682); assay: 0.5 nM 125I-labelled human RANTES on mCCR5-transfected HeLa-MAGI cells in a 1000-fold excess (500 nM) of cold human RANTES
[2] = target: mouse CCR5 (mCCR5) cloned from B6 mice, transiently expressed on HeLa-MAGI cells (mouse) (UniProt P51682); assay: 0.5 nM 125I-labelled human RANTES on mCCR5-transfected HeLa-MAGI cells, no sera

Sequence of UniProt P51682 (P51682 whole entry): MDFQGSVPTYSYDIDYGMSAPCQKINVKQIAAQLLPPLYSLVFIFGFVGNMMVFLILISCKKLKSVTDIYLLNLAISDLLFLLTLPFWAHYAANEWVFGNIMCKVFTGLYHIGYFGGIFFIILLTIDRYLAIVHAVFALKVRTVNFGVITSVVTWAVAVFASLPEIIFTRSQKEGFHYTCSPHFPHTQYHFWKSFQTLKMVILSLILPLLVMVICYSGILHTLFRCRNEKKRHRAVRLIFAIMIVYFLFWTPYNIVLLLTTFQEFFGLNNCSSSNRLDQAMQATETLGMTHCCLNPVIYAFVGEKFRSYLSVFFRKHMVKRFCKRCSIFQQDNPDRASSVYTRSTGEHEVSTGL

non-specific binding of iodinated RANTES [1]: 1300 cpm
maximally bound iodinated RANTES [2]: 2550 cpm
Substance: 125I-labelled human RANTES (Amersham) (from UniProt P13501 24-91) (ligand)
